Here are results for four sequences from the Immune Epitope Database (IEDB).

In general, Kd refers to a measure of binding affinity in units of concentration. A higher Kd goes with lower affinity. Usually IC50 stands for the point on the concentration scale where inhibition reaches its midpoint. A high value points to lower potency.

One assay deals with HLA-B*15:02. As to the kind of experiment: IEDB peptide-MHC binding, purified MHC/direct/fluorescence; filed as Kd, often an IC50 or EC50 that approximates it; ≥ and ≤ were set here for values at or beyond the usual limits of such assays. The note with it: source organism: dengue virus type 3.
The target in another assay is HLA-B*46:01. The description is as above.
Assay [1] has as its target HLA-A*01:01. The description is as above. To be noted: source organism: Influenza A virus (A/tern/Australia/1/04(H2N5)).
Assay [2] deals with HLA-A*02:01. The assay is described as above.
The next assay deals with HLA-A*02:03. The assay is described as above.
Another assay has as its target HLA-A*02:06. The assay is described as above. The note with it: source organism: Influenza A virus(A/swine/Henan/2/2004(H9N2)).
In the next assay the target is HLA-A*02:11. The description is as above.
In the next assay the target is HLA-A*02:12. Described as above.
The next assay deals with HLA-A*02:16. The description is as above. The note with it: source organism: Influenza A virus(A/swine/Henan/2/2004(H9N2)).
For a further assay, the target named is HLA-A*02:19. The assay is described as above.
Assay [3] concerns the target HLA-A*03:01. The description is as above. To be noted: source organism: Influenza A virus (A/tern/Australia/1/04(H2N5)).
For assay [4], the target named is HLA-A*11:01. Described as above. To be noted: source organism: Influenza A virus (A/tern/Australia/1/04(H2N5)).
Assay [5] addresses HLA-A*24:02. Described as above. The note with it: source organism: Influenza A virus (A/tern/Australia/1/04(H2N5)).
The target of assay [6] is HLA-B*07:02. The description is as above.
Assay [7] has as its target HLA-B*08:01. The description is as above. The note with it: source organism: Influenza A virus (A/tern/Australia/1/04(H2N5)).
The target of a further assay is HLA-B*15:01. The assay is described as above. The note with it: source organism: Influenza A virus (A/tern/Australia/1/04(H2N5)).
Assay [8] concerns the target HLA-B*18:01. The assay is described as above. The note with it: source organism: Influenza A virus (A/tern/Australia/1/04(H2N5)).
The next assay deals with HLA-B*27:05. Described as above. To be noted: source organism: Influenza A virus (A/tern/Australia/1/04(H2N5)).
The next assay has as its target HLA-B*40:01. The assay is described as above.
The next assay concerns the target HLA-B*44:02. The assay is described as above. The note with it: source organism: Influenza A virus (A/tern/Australia/1/04(H2N5)).
Assay [9] has as its target HLA-B*58:01. The description is as above.
In assay [10] the target is HLA-A*25:01. The assay is described as above. The note with it: source organism: West Nile virus strain PTRoxo.
The target of assay [11] is HLA-A*29:02. The description is as above. To be noted: source organism: West Nile virus strain PTRoxo.
Another assay addresses HLA-A*80:01. The assay is described as above. The note with it: source organism: West Nile virus.
In assay [12] the target is HLA-B*51:01. Described as above. The note with it: source organism: West Nile virus strain PTRoxo.
In assay [13] the target is HLA-A*01:01. Kind of assay: IEDB peptide-MHC binding, purified MHC/competitive/fluorescence; filed as Kd, often an IC50 or EC50 that approximates it; ≥ and ≤ were set here for values at or beyond the usual limits of such assays. To be noted: source organism: West Nile virus.
Assay [14] deals with HLA-A*01:01. As to the kind of experiment: IEDB peptide-MHC binding, purified MHC/competitive/fluorescence; ≥ and ≤ were set here for values at or beyond the usual limits of such assays. To be noted: source organism: Pan troglodytes.
The target in assay [15] is HLA-A*02:01. The assay is described as above. To be noted: source organism: Pan troglodytes.
Assay [16] has as its target HLA-A*03:01. The description is as above. The note with it: source organism: Pan troglodytes.
The target in assay [17] is HLA-A*11:01. The description is as above. The note with it: source organism: Pan troglodytes.
The target in assay [18] is HLA-A*24:02. Described as above. To be noted: source organism: Pan troglodytes.
Assay [19] has as its target HLA-A*25:01. Described as above. To be noted: source organism: Pan troglodytes.
The target in assay [20] is HLA-A*29:02. Described as above. To be noted: source organism: Pan troglodytes.
For the next assay, the target named is HLA-A*31:01. The assay is described as above. To be noted: source organism: Pan troglodytes.
Another assay concerns the target HLA-A*68:02. Described as above. To be noted: source organism: Pan troglodytes.
In assay [21] the target is HLA-B*07:02. The description is as above. To be noted: source organism: Pan troglodytes.
Assay [22] concerns the target HLA-B*08:01. Described as above. The note with it: source organism: Pan troglodytes.
The next assay addresses HLA-B*14:02. Described as above. The note with it: source organism: Pan troglodytes.
Assay [23] deals with HLA-B*18:01. Described as above. To be noted: source organism: Pan troglodytes.
The target of a further assay is HLA-B*35:01. The assay is described as above. The note with it: source organism: Pan troglodytes.
Another assay addresses HLA-B*37:01. The assay is described as above. To be noted: source organism: Pan troglodytes.
The target of the next assay is HLA-B*40:02. Described as above. The note with it: source organism: Pan troglodytes.
A further assay deals with HLA-B*44:03. Described as above. The note with it: source organism: Pan troglodytes.
For assay [24], the target named is HLA-B*51:01. The description is as above. The note with it: source organism: Pan troglodytes.
The target in another assay is HLA-B*53:01. The description is as above. The note with it: source organism: Pan troglodytes.
For assay [25], the target named is HLA-B*58:01. The description is as above. The note with it: source organism: Pan troglodytes.
The target in a further assay is HLA-C*14:02. Kind of assay: IEDB peptide-MHC binding, purified MHC/direct/fluorescence; filed as Kd, often an IC50 or EC50 that approximates it; ≥ and ≤ were set here for values at or beyond the usual limits of such assays. To be noted: source organism: Homo sapiens.
The mark [26] stands for this setting: source organism: Influenza A virus(A/swine/Henan/2/2004(H9N2)).
Setting [27] is: source organism: Influenza A virus (A/tern/Australia/1/04(H2N5)).
Where [28] appears, read: source organism: West Nile virus strain PTRoxo.

GMGEAAAIF: the Kd in the assay with HLA-B*15:02 was 0.158 µM; with HLA-B*46:01 (source organism: Dengue virus 1 Singapore/S275/1990) it was ≥ 20 µM.

For the sequence LLTEVETYV, the Kd with HLA-A*01:01 [1] is ≥ 20 µM; with HLA-A*02:01 [2] (source organism: Influenza A virus (A/Puerto Rico/8/34/Mount Sinai(H1N1))), 0.012 µM; in the assay with HLA-A*02:03 (setting [26]) it was ≤ 0.001 µM; with HLA-A*02:06, ≤ 0.001 µM; in the assay with HLA-A*02:11 (setting [26]) it was ≤ 0.001 µM; in the assay with HLA-A*02:12 (setting [26]), ≤ 0.001 µM. The Kd was ≤ 0.001 µM with HLA-A*02:16; 0.002 µM with HLA-A*02:19 (setting [26]); ≥ 20 µM with HLA-A*03:01 [3]; ≥ 20 µM in the assay with HLA-A*11:01 [4]; ≥ 20 µM with HLA-A*24:02 [5]; ≥ 20 µM with HLA-B*07:02 [6] (setting [27]). Also, the Kd in the assay with HLA-B*08:01 [7], in the assay with HLA-B*15:01, with HLA-B*18:01 [8], with HLA-B*27:05, with HLA-B*40:01 (setting [27]) and in the assay with HLA-B*44:02 was ≥ 20 µM throughout. Also, the Kd in the assay with HLA-B*46:01 (setting [27]) and with HLA-B*58:01 [9] (setting [27]) was ≥ 20 µM each time.

As for MTRGLLGSY, the Kd was ≥ 20 µM with HLA-A*02:01 [2] (setting [28]); ≥ 20 µM in the assay with HLA-A*02:03 (setting [28]); ≥ 20 µM with HLA-A*02:11 (setting [28]); ≥ 20 µM with HLA-A*02:12 (setting [28]); ≥ 20 µM in the assay with HLA-A*02:19 (setting [28]); 0.009 µM with HLA-A*25:01 [10]. Moreover, the Kd with HLA-A*29:02 [11] was 0.099 µM; with HLA-A*80:01 it was 0.173 µM; with HLA-B*07:02 [6] (setting [28]) it was ≥ 20 µM; with HLA-B*40:01 (setting [28]), ≥ 20 µM; with HLA-B*51:01 [12] it was ≥ 20 µM; with HLA-B*58:01 [9] (setting [28]) it was ≥ 20 µM. The sequence further returned a Kd with HLA-A*01:01 [13] of 0.519 µM.

Regarding RPPYSSYGY, the IC50 in the assay with HLA-A*01:01 [14], with HLA-A*02:01 [15], with HLA-A*03:01 [16], with HLA-A*11:01 [17], in the assay with HLA-A*24:02 [18] and with HLA-A*25:01 [19] was ≥ 20 µM in each case. Besides, the IC50 was 0.252 µM with HLA-A*29:02 [20]; ≥ 20 µM with HLA-A*31:01; ≥ 20 µM with HLA-A*68:02; ≥ 20 µM with HLA-B*07:02 [21]; ≥ 20 µM with HLA-B*08:01 [22]; ≥ 20 µM in the assay with HLA-B*14:02. Further, the IC50 in the assay with HLA-B*18:01 [23] is ≥ 20 µM; in the assay with HLA-B*35:01, 0.0907 µM; with HLA-B*37:01, ≥ 20 µM; with HLA-B*40:02, ≥ 20 µM; in the assay with HLA-B*44:03, ≥ 20 µM; with HLA-B*51:01 [24] it was ≥ 20 µM. The IC50 in the assay with HLA-B*53:01 and with HLA-B*58:01 [25] was ≥ 20 µM in each case. Moreover, in the assay with HLA-C*14:02, the Kd was ≥ 20 µM.
